Target: neuraminidase (NA) from A/Brisbane/02/2018 (H1N1), wild type (influenza A virus A/Brisbane/02/2018 (H1N1))
Assay: non-reducing SDS-PAGE

## neuraminidase (NA) from A/Brisbane/02/2018 (H1N1), wild type (natural protein)
  stoichiometry N: 2

From publication PMC12456132
